pKd: −log10 of the molar value.
What was measured:
[1] = target: PKA (RIIα), regulatory subunit of type II cAMP-dependent protein kinase, residues 2-44; assay: ITC
[2] = target: FLAG-tagged PKA (RIIα) (UniProt P13861); assay: co-IP
[3] = target: PKA (RIα) (Homo sapiens) (UniProt P10644); conditions: cited from earlier work
[4] = target: PKA (RIIα) (Homo sapiens) (UniProt P13861); conditions: cited from earlier work

Chain of D-AKAP2 (O43572 29-662): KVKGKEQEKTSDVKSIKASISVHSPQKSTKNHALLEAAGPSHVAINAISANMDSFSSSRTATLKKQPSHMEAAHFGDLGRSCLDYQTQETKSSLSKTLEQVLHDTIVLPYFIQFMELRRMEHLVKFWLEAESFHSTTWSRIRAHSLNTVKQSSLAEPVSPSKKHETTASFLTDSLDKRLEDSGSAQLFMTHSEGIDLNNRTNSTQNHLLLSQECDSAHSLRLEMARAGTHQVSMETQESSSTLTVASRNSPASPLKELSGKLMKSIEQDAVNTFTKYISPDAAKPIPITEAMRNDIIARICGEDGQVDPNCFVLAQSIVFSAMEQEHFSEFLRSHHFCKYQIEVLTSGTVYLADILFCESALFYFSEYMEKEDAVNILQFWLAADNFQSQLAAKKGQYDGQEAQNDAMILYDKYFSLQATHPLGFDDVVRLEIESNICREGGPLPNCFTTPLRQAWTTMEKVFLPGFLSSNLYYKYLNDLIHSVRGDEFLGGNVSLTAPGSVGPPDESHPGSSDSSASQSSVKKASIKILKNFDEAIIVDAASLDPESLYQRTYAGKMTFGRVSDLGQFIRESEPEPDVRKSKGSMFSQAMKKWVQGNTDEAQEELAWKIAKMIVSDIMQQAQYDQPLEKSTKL
Chain of PKA (RIα) (Homo sapiens) (P10644 whole entry): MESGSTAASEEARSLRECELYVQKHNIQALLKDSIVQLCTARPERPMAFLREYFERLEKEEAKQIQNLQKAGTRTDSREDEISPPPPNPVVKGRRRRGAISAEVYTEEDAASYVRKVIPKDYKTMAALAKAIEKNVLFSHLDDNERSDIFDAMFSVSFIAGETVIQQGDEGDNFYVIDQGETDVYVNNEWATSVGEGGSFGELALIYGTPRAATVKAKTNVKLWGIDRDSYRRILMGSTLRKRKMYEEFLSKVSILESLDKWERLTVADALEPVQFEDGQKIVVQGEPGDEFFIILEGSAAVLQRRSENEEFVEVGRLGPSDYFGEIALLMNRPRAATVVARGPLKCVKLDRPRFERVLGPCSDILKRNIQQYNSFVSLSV

| Substance | pKd [1] | also measured |
| --- | --- | --- |
| AML1-ETO V601A (natural protein) |  | fold decrease of the interaction relative to AML1-ETO [2]: 2 fold |
| D-AKAP2 (from UniProt O43572) |  | pKd [3]: 7.32; pKd [4]: 8.70 |
| Trx-NHR3(585-615) V601A (domain or fragment) | 4.85 |  |
| Trx-NHR3(585-615) V604A (domain or fragment) | 6.42 |  |
| Trx-NHR3(585-615) W594A (domain or fragment) | 6.04 |  |

The remaining substances from weak to strong by pKd [1], led by results:

| pKd [1] | Substance | also measured |
| --- | --- | --- |
| 6.59 | Trx-NHR3(585-615) (domain or fragment) |  |
| 6.89 | Trx-NHR3(585-654) (domain or fragment) |  |
| 7.17 | AML1-ETO Nervy Homology Region 3 (NHR3) domain, residues A585-N654 (domain or fragment) | stoichiometry N (NHR3 : PKA (RIIα) chains (1:2)) [1]: 0.5 |

Reference: PMC2945414
